Measured values as given in paper PMC7566517, “Long-acting antibody ligand mimetics for HER4-selective agonism” (Scientific Reports, 2020).
Values belong to the binder of their own block, whether it stands above or below them.

Molecular target: T1, recombinant human HER4 ECD, biotinylated (human, UniProt Q15303 26-651, biotinylated (site not stated))
T1 construct: human epidermal growth factor receptor family member 4 (HER4, ErbB4), extracellular domain; Captured on streptavidin biosensors by its biotin; also called ErbB4; source: in-house purified recombinant
T1 sequence (looked up): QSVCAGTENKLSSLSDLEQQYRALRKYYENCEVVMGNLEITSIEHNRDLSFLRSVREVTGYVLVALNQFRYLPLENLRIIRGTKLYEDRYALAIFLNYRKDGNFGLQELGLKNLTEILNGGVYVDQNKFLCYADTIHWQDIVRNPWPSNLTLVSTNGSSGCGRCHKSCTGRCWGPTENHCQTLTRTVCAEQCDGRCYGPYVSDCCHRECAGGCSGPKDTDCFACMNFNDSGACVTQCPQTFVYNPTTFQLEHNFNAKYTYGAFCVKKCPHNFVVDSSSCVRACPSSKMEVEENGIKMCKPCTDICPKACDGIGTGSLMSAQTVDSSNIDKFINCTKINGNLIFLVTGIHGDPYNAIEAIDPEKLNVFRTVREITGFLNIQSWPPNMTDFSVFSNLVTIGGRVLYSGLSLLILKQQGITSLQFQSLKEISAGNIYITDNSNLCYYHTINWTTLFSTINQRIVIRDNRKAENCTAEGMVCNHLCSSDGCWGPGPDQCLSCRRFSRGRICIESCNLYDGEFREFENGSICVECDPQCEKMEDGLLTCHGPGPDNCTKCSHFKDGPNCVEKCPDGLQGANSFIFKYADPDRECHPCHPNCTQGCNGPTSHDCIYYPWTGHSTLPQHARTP
Assay: BLI; Octet 384; biotinylated HER4 or HER3 at 1 μg/mL captured on streptavidin biosensors; PBS pH 7.4, 3 mg/mL BSA, 0.05% Tween 20; serial dilutions of the variants; steady-state fit
Conditions: both partners purified

Kd: 640 nM
B1: NRG1-MFc fusion protein (NRG1 EGF domain fused with monomeric Fc) (Fc fusion, human)
chain: GTSHLVKCAEKEKTFCVNGGECFMVKDLSNPSRYLCKCPNEFTGDRCQNYVMASF
notes: neuregulin-1 beta (NRG1b) EGF domain, about 60 amino acids; numbers count on: the EGF domain (His2, Cys45); also called neuregulin-MFc; parental clone; source: HEK293FT, transient transfection, purified (protein A); not shown: monomeric Fc (MFc C4)

Kd: > 10000 nM
B2: ALM3 (antibody ligand mimetic 3) (antibody)
chain 1: not shown
chain 2: EIVLTQSPGTLSLSPGERATFSCRSSHSIRSRRVAWYQHKPGQAPRLVIHGVSNRASGISDRFSGSGSGTDFTLTITRVEPEDFALYYCQVYGASSYTFGQGTKLERKRTVAAPSVFIFPPSDEQLKSGTASVVCLLNNFYPREAKVQWKVDNALQSGNSQESVTEQDSKDSTYSLSSTLTLSKADYEKHKVYACEVTHQGLRSPVTKSFNRGEC

Kd: 5600 nM
B3: ALM4 (antibody ligand mimetic 4) (antibody)
chain 1: not shown
chain 2: B2 chain 2

Kd: 460 nM
B4: NRG1 fused with human serum albumin (ligand, UniProt Q02297-6 177-236, looked up)
chain: SHLVKCAEKEKTFCVNGGECFMVKDLSNPSRYLCKCPNEFTGDRCQNYVMASFYKHLGIE
notes: neuregulin 1 (NRG1) fused with HSA, control protein; Control protein; also called NRG1-HSA
